{"source": "paper PMC10480186", "about": "“The self-association equilibrium of DNAJA2 regulates its interaction with unfolded substrate proteins and with Hsc70” (Nature Communications, 2023)", "binders": {"B1": {"name": "DNAJA2LQ (natural protein)", "chain": "not shown", "notes": "DNAJA2, human, with L135 and Q136 in the CTDI mutated to Glu"}, "B2": {"name": "DNAJA2ΔG/FR (natural protein)", "chain": "not shown", "notes": "DNAJA2, human, lacking the glycine/phenylalanine-rich region (deletion of residues 77 to 101); For cryo-EM and XL-MS the sample was cross-linked with BS3; also called DnaJA2∆G/FR; DnJA2ΔG/FR"}, "B3": {"name": "DNAJA2ΔZFLR (natural protein)", "chain": "not shown", "notes": "DNAJA2, human, lacking the Zn-finger-like region (deletion of residues 141 to 209)"}, "B4": {"name": "Glucose-6-phosphate dehydrogenase (G6PDH) from Leuconostoc mesenteroides, aggregated (enzyme, UniProt P11411 1-486, looked up)", "chain": "MVSEIKTLVTFFGGTGDLAKRKLYPSVFNLYKKGYLQKHFAIVGTARQALNDDEFKQLVRDSIKDFTDDQAQAEAFIEHFSYRAHDVTDAASYAVLKEAIEEAADKFDIDGNRIFYMSVAPRFFGTIAKYLKSEGLLADTGYNRLMIEKPFGTSYDTAAELQNDLENAFDDNQLFRIDHYLGKEMVQNIAALRFGNPIFDAAWNKDYIKNVQVTLSEVLGVEERAGYYDTAGALLDMIQNHTMQIVGWLAMEKPESFTDKDIRAAKNAAFNALKIYDEAEVNKYFVRAQYGAGDSADFKPYLEELDVPADSKNNTFIAGELQFDLPRWEGVPFYVRSGKRLAAKQTRVDIVFKAGTFNFGSEQEAQEAVLSIIIDPKGAIELKLNAKSVEDAFNTRTIDLGWTVSDEDKKNTPEPYERMIHDTMNGDGSNFADWNGVSIAWKFVDAISAVYTADKAPLETYKSGSMGPEASDKLLAANGDAWVFKG", "notes": "glucose-6-phosphate dehydrogenase, Leuconostoc mesenteroides; Thermally denatured and aggregated before the co-sedimentation assay; native G6PDH served as the control that was subtracted; also called G6PDH aggregates; source: bought: Worthington"}, "B5": {"name": "DNAJA2ΔCD (domain or fragment)", "chain": "not shown", "notes": "DNAJA2, human, lacking the disordered C-terminal domain (deletion of residues 361 to 412, V361 to Q412)"}, "B6": {"name": "DNAJA2wt (natural protein)", "chain": "not shown", "notes": "DNAJA2, human class A J-domain protein; last residue Q412; Dimers that assemble into tubular oligomers; For cryo-EM and XL-MS the sample was cross-linked with BS3; The Ni-NTA-Nanogold is said to label Hsc70 specifically, so the His6-SUMO tag was probably removed; also called DnaJ2A"}}, "key": {"[1]": {"biological_target": "the molecule itself", "test": "cross-linking; 2 µM protein, 0.005% glutaraldehyde, 15 min at 4 °C in 20 mM Hepes pH 7.6, 50 mM KCl, 5 mM MgCl2, 2 mM DTT; SDS-PAGE, Coomassie; monomer, dimer and oligomer bands"}, "[2]": {"biological_target": "the molecule itself", "test": "negative-stain electron microscopy; samples on carbon-coated grids, 2% uranyl acetate; 15 µM protein; tubular oligomers of dimers"}, "[3]": {"biological_target": "the molecule itself", "test": "dynamic light scattering; 30 µM protein in 20 mM Hepes-KOH pH 7.6, 50 mM KCl, 2 mM DTT; volume-based size distributions; the wt also with 300 mM NaCl, 5% 1,6-hexanediol or at 40 °C, which shift it to smaller particles; self-association: dimer and dimers to larger oligomers"}, "Hsc70wt": {"biological_target": "T1, Hsc70wt (human, UniProt P11142 1-646)", "T1 construct": "Hsc70 (HSPA8), the constitutively expressed Hsp70 isoform, cDNA from Addgene; also called HSPA8", "T1 sequence (P11142 whole entry, canonical isoform)": "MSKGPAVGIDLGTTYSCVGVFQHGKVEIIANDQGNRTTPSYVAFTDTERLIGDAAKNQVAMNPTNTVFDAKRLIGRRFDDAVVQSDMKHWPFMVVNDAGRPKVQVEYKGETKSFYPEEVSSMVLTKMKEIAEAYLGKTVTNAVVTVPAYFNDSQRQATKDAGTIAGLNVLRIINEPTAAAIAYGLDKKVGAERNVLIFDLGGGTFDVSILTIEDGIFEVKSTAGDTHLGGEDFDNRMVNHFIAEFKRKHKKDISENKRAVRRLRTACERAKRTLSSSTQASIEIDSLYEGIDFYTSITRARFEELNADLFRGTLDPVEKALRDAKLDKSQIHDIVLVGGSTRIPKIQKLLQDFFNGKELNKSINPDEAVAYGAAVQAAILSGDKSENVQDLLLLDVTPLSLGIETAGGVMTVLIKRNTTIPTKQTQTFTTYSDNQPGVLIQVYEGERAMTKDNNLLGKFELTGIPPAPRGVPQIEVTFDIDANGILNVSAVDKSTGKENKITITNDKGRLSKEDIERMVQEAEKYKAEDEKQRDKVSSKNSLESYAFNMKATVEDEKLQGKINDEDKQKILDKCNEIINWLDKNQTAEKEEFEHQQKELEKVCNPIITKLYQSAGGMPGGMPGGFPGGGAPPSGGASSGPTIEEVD", "test": "co-sedimentation; 2 µM Hsc70, 1 µM J-domain protein (DNAJB1, DNAJA2ΔCD or DNAJA2wt), 0.4 µM Apg2, 0.4 µM aggregated or native G6PDH; pellets on SDS-PAGE, band intensities; amounts in pellets with native G6PDH subtracted", "details": "both partners purified"}, "[4]": {"biological_target": "B4", "test": "co-sedimentation; 2 µM Hsc70, 1 µM J-domain protein (DNAJB1, DNAJA2ΔCD or DNAJA2wt), 0.4 µM Apg2, 0.4 µM aggregated or native G6PDH; pellets on SDS-PAGE, band intensities; amounts in pellets with native G6PDH subtracted", "details": "both partners purified"}, "[5]": {"biological_target": "the molecule itself", "test": "static light scattering; 15 µM DNAJA2 in refolding buffer (20 mM Hepes-KOH pH 7.6, 50 mM KCl, 5 mM MgCl2, 2 mM DTT) heated to 40 °C and cooled back to 25 °C; oligomers to dimers"}}, "data": [{"binder": "B1", "values": [{"measurement": "stoichiometry N", "setting": "[1]", "result": "≤ 2"}]}, {"binder": "B2", "values": [{"measurement": "binding result", "setting": "[2]", "result": "binds"}]}, {"binder": "B3", "values": [{"measurement": "stoichiometry N", "setting": "[1]", "result": "≤ 2"}, {"measurement": "stoichiometry N", "setting": "[3]", "result": 2}]}, {"binder": "B4", "values": [{"measurement": "binding result", "setting": "Hsc70wt", "result": "binds"}]}, {"binder": "B5", "values": [{"measurement": "stoichiometry N", "setting": "[1]", "result": 2}, {"measurement": "binding result", "setting": "[4]", "result": "binds"}]}, {"binder": "B6", "values": [{"measurement": "t1/2 of the temperature-induced dissociation of the oligomers (40 °C)", "setting": "[5]", "result": 2.3, "unit": "min"}, {"measurement": "fold reduction of the aggregate-bound amount against DNAJB1", "setting": "[4]", "result": "~2", "unit": "fold"}]}]}
